{"source": "paper PMC11417362", "about": "“Template-independent synthesis and 3′-end labelling of 2′-modified oligonucleotides with terminal deoxynucleotidyl transferases” (Nucleic Acids Research, 2024)", "key": {"[1]": {"substrate": "Cc1cn([C@H]2C[C@H](O)[C@@H](COP(=O)(O)OP(=O)(O)OP(=O)(O)O)O2)c(=O)[nH]c1=O", "assay": "purified protein, by the assay type", "design": "Steady-state single-nucleotide incorporation into primer FAM-18G, denaturing PAGE band quantification, Michaelis-Menten fit", "experimental": "(§2) The steady-state kinetic experiments were performed as described previously with minor modifications ([61]). A 2× reaction solution was prepared by mixing 200 nM primer FAM-18G, 0–128 μM 2′-modified NTP and 20 mM Mg(OAc)2 in 2× TdT buffer. A 5 μl aliquot of pre-warmed 2× reaction solution was mixed with 5 μl of bovine TdT, MTdT-evo or murine TdT of varying concentration, and incubated at 37°C for a certain time. The reaction was then quenched by the addition of 10 μl of 2× TBE-urea sample buffer and incubation at 95°C for 10 min. The products were analysed with 20% denaturing PAGE gels containing 8 M urea. All gel bands were quantified using Quantity One analysis software (Bio-Rad). Km and kcat values were calculated by fitting the data to the Michaelis–Menten equation with GraphPad Prism 8 software. To quantify the activities of different TdTs for the incorporation of 2′-modified NTPs, steady-state kinetic experiments were carried out."}, "[2]": {"substrate": "CO[C@@H]1[C@H](O)[C@@H](COP(=O)(O)OP(=O)(O)OP(=O)(O)O)O[C@H]1n1cnc2c(=O)[nH]c(N)nc21", "assay": "purified protein, by the assay type", "design": "Steady-state single-nucleotide incorporation into primer FAM-18G, denaturing PAGE band quantification, Michaelis-Menten fit", "experimental": "as §2"}, "[3]": {"substrate": "CO[C@@H]1[C@H](O)[C@@H](COP(=O)(O)OP(=O)(O)OP(=O)(O)O)O[C@H]1n1ccc(N)nc1=O", "assay": "purified protein, by the assay type", "design": "Steady-state single-nucleotide incorporation into primer FAM-18G, denaturing PAGE band quantification, Michaelis-Menten fit", "experimental": "as §2"}, "[4]": {"substrate": "O=c1ccn([C@@H]2O[C@H](COP(=O)(O)OP(=O)(O)OP(=O)(O)O)[C@@H](O)[C@H]2F)c(=O)[nH]1", "assay": "purified protein, by the assay type", "design": "Steady-state single-nucleotide incorporation into primer FAM-18G, denaturing PAGE band quantification, Michaelis-Menten fit", "experimental": "as §2"}, "[5]": {"substrate": "Nc1ncnc2c1ncn2[C@@H]1O[C@H](COP(=O)(O)OP(=O)(O)OP(=O)(O)O)[C@@H](O)[C@@H]1F", "assay": "steady-state primer extension, denaturing PAGE, Michaelis-Menten fit", "assay_type": "biochemical, Bos taurus", "conditions": "100 nM ssDNA primer FAM-18G, 10 mM Mg(OAc)2, 1x TdT buffer (100 mM KCl, 30 mM Tris-acetate, 0.05% Triton X-100), pH 7.5, 37°C", "from_the_text": "(§1) steady-state primer extension, denaturing PAGE, Michaelis-Menten fit on bovine TdT"}, "[6]": {"substrate": "O=c1ccn([C@@H]2O[C@H](COP(=O)(O)OP(=O)(O)OP(=O)(O)O)[C@@H](O)[C@@H]2F)c(=O)[nH]1", "assay": "steady-state primer extension, denaturing PAGE, Michaelis-Menten fit", "assay_type": "biochemical, Bos taurus", "conditions": "100 nM ssDNA primer FAM-18G, 10 mM Mg(OAc)2, 1x TdT buffer (100 mM KCl, 30 mM Tris-acetate, 0.05% Triton X-100), pH 7.5, 37°C", "from_the_text": "as §1"}, "[7]": {"substrate": "Nc1ncnc2c1ncn2[C@@H]1O[C@H](COP(=O)(O)OP(=O)(O)OP(=O)(O)O)[C@@H](O)[C@H]1F", "assay": "steady-state primer extension, denaturing PAGE, Michaelis-Menten fit", "assay_type": "biochemical, Bos taurus", "conditions": "100 nM ssDNA primer FAM-18G, 10 mM Mg(OAc)2, 1x TdT buffer (100 mM KCl, 30 mM Tris-acetate, 0.05% Triton X-100), pH 7.5, 37°C", "from_the_text": "as §1"}, "[8]": {"substrate": "Nc1nc2c(ncn2[C@@H]2O[C@H](COP(=O)(O)OP(=O)(O)OP(=O)(O)O)[C@@H](O)[C@@H]2F)c(=O)[nH]1", "assay": "steady-state primer extension, denaturing PAGE, Michaelis-Menten fit", "assay_type": "biochemical, Bos taurus", "conditions": "100 nM ssDNA primer FAM-18G, 10 mM Mg(OAc)2, 1x TdT buffer (100 mM KCl, 30 mM Tris-acetate, 0.05% Triton X-100), pH 7.5, 37°C", "from_the_text": "as §1"}, "[9]": {"substrate": "Nc1ccn([C@H]2C[C@H](O)[C@@H](COP(=O)(O)OP(=O)(O)OP(=O)(O)O)O2)c(=O)n1", "assay": "steady-state primer extension, denaturing PAGE, Michaelis-Menten fit", "assay_type": "biochemical, Bos taurus", "conditions": "100 nM ssDNA primer FAM-18G, 10 mM Mg(OAc)2, 1x TdT buffer (100 mM KCl, 30 mM Tris-acetate, 0.05% Triton X-100), pH 7.5, 37°C", "from_the_text": "as §1"}, "[10]": {"substrate": "Nc1nc2c(ncn2[C@@H]2O[C@H](COP(=O)(O)OP(=O)(O)OP(=O)(O)O)[C@@H](O)[C@H]2F)c(=O)[nH]1", "assay": "steady-state primer extension, denaturing PAGE, Michaelis-Menten fit", "assay_type": "biochemical, Bos taurus", "conditions": "100 nM ssDNA primer FAM-18G, 10 mM Mg(OAc)2, 1x TdT buffer (100 mM KCl, 30 mM Tris-acetate, 0.05% Triton X-100), pH 7.5, 37°C", "from_the_text": "as §1"}, "[11]": {"substrate": "Nc1ccn([C@@H]2O[C@H](COP(=O)(O)OP(=O)(O)OP(=O)(O)O)[C@@H](O)[C@@H]2F)c(=O)n1", "assay": "steady-state primer extension, denaturing PAGE, Michaelis-Menten fit", "assay_type": "biochemical, Bos taurus", "conditions": "100 nM ssDNA primer FAM-18G, 10 mM Mg(OAc)2, 1x TdT buffer (100 mM KCl, 30 mM Tris-acetate, 0.05% Triton X-100), pH 7.5, 37°C", "from_the_text": "as §1"}, "purified protein": {"substrate": "Nc1ncnc2c1ncn2[C@H]1C[C@H](O)[C@@H](COP(=O)(O)OP(=O)(O)OP(=O)(O)O)O1", "assay": "purified protein", "conditions": "100 nM ssDNA primer FAM-18G, 10 mM Mg(OAc)2, 1x TdT buffer (100 mM KCl, 30 mM Tris-acetate, 0.05% Triton X-100), pH 7.5, 37°C"}}, "data": [{"protein": "bovine TdT (Bos taurus) (protein, recombinant, plasmid pET30a-bovine TdT, E. coli BL21(DE3)) MDPLCTASSGPRKKRPRQVGASMASPPHDIKFQNLVLFILEKKMGTTRRNFLMELARRKGFRVENELSDSVTHIVAENNSGSEVLEWLQVQNIRASSQLELLDVSWLIESMGAGKPVEITGKHQLVVRTDYSATPNPGFQKTPPLAVKKISQYACQRKTTLNNYNHIFTDAFEILAENSEFKENEVSYVTFMRAASVLKSLPFTIISMKDTEGIPCLGDKVKCIIEEIIEDGESSEVKAVLNDERYQSFKLFTSVFGVGLKTSEKWFRMGFRSLSKIMSDKTLKFTKMQKAGFLYYEDLVSCVTRAEAEAVGVLVKEAVWAFLPDAFVTMTGGFRRGKKIGHDVDFLITSPGSAEDEEQLLPKVINLWEKKGLLLYYDLVESTFEKFKLPSRQVDTLDHFQKCFLILKLHHQRVDSSKSNQQEGKTWKAIRVDLVMCPYENRAFALLGWTGSRQFERDIRRYATHERKMMLDNHALYDKTKRVFLKAESEEEIFAHLGLDYIEPWERNA", "values": [{"measurement": "Km", "setting": "[1]", "value": "4.19 ± 0.91", "unit": "µM"}, {"measurement": "kcat", "setting": "[1]", "value": "0.0075 ± 0.000833", "unit": "s⁻¹"}, {"measurement": "kcat/Km", "setting": "[1]", "value": 1780, "unit": "M⁻¹ s⁻¹"}, {"measurement": "Km", "setting": "[2]", "value": "6.10 ± 1.50", "unit": "µM"}, {"measurement": "kcat", "setting": "[2]", "value": "0.000683 ± 2.17e-05", "unit": "s⁻¹"}, {"measurement": "kcat/Km", "setting": "[2]", "value": 112, "unit": "M⁻¹ s⁻¹"}, {"measurement": "Km", "setting": "[3]", "value": "5.87 ± 0.76", "unit": "µM"}, {"measurement": "kcat", "setting": "[3]", "value": "0.0004 ± 5.83e-05", "unit": "s⁻¹"}, {"measurement": "kcat/Km", "setting": "[3]", "value": 68.2, "unit": "M⁻¹ s⁻¹"}, {"measurement": "Km", "setting": "[4]", "value": "5.33 ± 1.58", "unit": "µM"}, {"measurement": "kcat", "setting": "[4]", "value": "0.00267 ± 0.000112", "unit": "s⁻¹"}, {"measurement": "kcat/Km", "setting": "[4]", "value": 500, "unit": "M⁻¹ s⁻¹"}, {"measurement": "Km", "setting": "[5]", "value": "2.23 ± 0.32", "unit": "µM"}, {"measurement": "kcat", "setting": "[5]", "value": "0.0443 ± 0.00717", "unit": "s⁻¹"}, {"measurement": "kcat/Km", "setting": "[5]", "value": 19800, "unit": "M⁻¹ s⁻¹"}, {"measurement": "Km", "setting": "[6]", "value": "2.63 ± 0.77", "unit": "µM"}, {"measurement": "kcat", "setting": "[6]", "value": "0.0148 ± 0.00065", "unit": "s⁻¹"}, {"measurement": "kcat/Km", "setting": "[6]", "value": 5630, "unit": "M⁻¹ s⁻¹"}, {"measurement": "Km", "setting": "[7]", "value": "0.97 ± 0.27", "unit": "µM"}, {"measurement": "kcat", "setting": "[7]", "value": "0.00933 ± 0.0011", "unit": "s⁻¹"}, {"measurement": "kcat/Km", "setting": "[7]", "value": 9620, "unit": "M⁻¹ s⁻¹"}, {"measurement": "Km", "setting": "[8]", "value": "2.91 ± 0.52", "unit": "µM"}, {"measurement": "kcat", "setting": "[8]", "value": "0.0638 ± 0.00417", "unit": "s⁻¹"}, {"measurement": "kcat/Km", "setting": "[8]", "value": 22000, "unit": "M⁻¹ s⁻¹"}, {"measurement": "Km", "setting": "[9]", "value": "3.14 ± 0.46", "unit": "µM"}, {"measurement": "kcat", "setting": "[9]", "value": "0.02 ± 0.001", "unit": "s⁻¹"}, {"measurement": "kcat/Km", "setting": "[9]", "value": 6370, "unit": "M⁻¹ s⁻¹"}, {"measurement": "Km", "setting": "[10]", "value": "4.03 ± 0.52", "unit": "µM"}, {"measurement": "kcat", "setting": "[10]", "value": "0.0182 ± 0.000483", "unit": "s⁻¹"}, {"measurement": "kcat/Km", "setting": "[10]", "value": 4500, "unit": "M⁻¹ s⁻¹"}, {"measurement": "Km", "setting": "[11]", "value": "2.83 ± 0.69", "unit": "µM"}, {"measurement": "kcat", "setting": "[11]", "value": "0.0285 ± 0.00317", "unit": "s⁻¹"}, {"measurement": "kcat/Km", "setting": "[11]", "value": 10100, "unit": "M⁻¹ s⁻¹"}, {"measurement": "Km", "setting": "purified protein", "value": "2.65 ± 0.76", "unit": "µM"}, {"measurement": "kcat", "setting": "purified protein", "value": 0.00517, "unit": "s⁻¹"}, {"measurement": "kcat/Km", "setting": "purified protein", "value": 1950, "unit": "M⁻¹ s⁻¹"}]}]}
